From paper PMC5503682

Experiments:
[1] = molecular target: SP6 tailspike protein gp46 (bacteriophage SP6); assay: cryo-EM structure
[2] = molecular target: SP6 tailspike protein gp47 (bacteriophage SP6); assay: cryo-EM structure

With “SP6 tailspike protein gp46 (natural protein)” the stoichiometry N [1] was 3.
For “SP6 tailspike protein gp47 (natural protein)”, the stoichiometry N [2] was 3.
